This is an account of results in paper PMC3005221.

Experiment [1] deals with ubiquitin (Homo sapiens) (UniProt P0CG48). The note with it: cited from earlier work.
Experiment [2] addresses FITC-β-Ala-β-Ala-LQDGF. The experiment in a line: fluorescence polarisation. For orientation: In fluorescence polarisation assays a small probe gives low polarisation when free and higher when bound to something large.
Experiment [3] deals with ubiquitin C-terminal five-residue peptide (Homo sapiens). The following applies: cited from earlier work.
Experiment [4] addresses GST (Schistosoma japonicum) [GST: P08515]. The following applies: cited from earlier work.
The target in experiment [5] is FITC-β-Ala-β-Ala-RGMGG (human). Put plainly: fluorescence polarisation.
The target in experiment [6] is FITC-β-Ala-β-Ala-FDGFM. Put plainly: fluorescence polarisation.
For experiment [7], the target named is FITC-β-Ala-β-Ala-RARGG (human). The experiment in a line: fluorescence polarisation.
Experiment [8] concerns the target FITC-β-Ala-β-Ala-ALRGG (human). Put plainly: fluorescence polarisation.
In experiment [9] the target is FITC-β-Ala-β-Ala-RLRGG (human). Put plainly: fluorescence polarisation.
Experiment [10] addresses FITC-β-Ala-β-Ala-NALGG. Put plainly: fluorescence polarisation.
The target in experiment [11] is FITC-β-Ala-β-Ala-IAKGG. The experiment in a line: fluorescence polarisation.
The target of experiment [12] is FITC-β-Ala-β-Ala-YGFGG (human). Put plainly: fluorescence polarisation.
The target of experiment [13] is FITC-β-Ala-β-Ala-STLGG (human). Put plainly: fluorescence polarisation.

Chain of Ubp-M BUZ (Q9Y5T5 22-142): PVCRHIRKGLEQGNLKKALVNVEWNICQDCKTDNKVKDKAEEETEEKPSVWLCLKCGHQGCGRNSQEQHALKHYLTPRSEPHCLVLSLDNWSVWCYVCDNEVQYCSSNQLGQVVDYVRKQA
Chain of HDAC6 BUZ (Q9UBN7 1111-1209): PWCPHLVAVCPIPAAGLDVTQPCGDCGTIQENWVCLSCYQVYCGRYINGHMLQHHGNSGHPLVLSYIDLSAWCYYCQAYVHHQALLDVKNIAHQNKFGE

A word on the Kd: it is the concentration at which binding is half-saturated. For HDAC6 BUZ (from UniProt Q9UBN7), in experiment [1], the Kd was 0.06 µM.
As to “GST-Abl2 SH2 domain fusion protein (from UniProt P42684 173-263) (domain or fragment)”, in [2], the Kd is 4.6 µM.
As to Ubp-M BUZ (from UniProt Q9Y5T5), the Kd in experiment [3] was 15.9 µM.
Take GST (from UniProt P08515): in experiment [4], the Kd is 0.33 µM.
As for “GST-HDAC6 BUZ (from UniProt Q9UBN7 1059-1215) (domain or fragment)”, the Kd turned out to be 4 µM in [2]; 1.3 µM in [5]; 10.8 µM in experiment [6]; 0.47 µM in [7]; 2.5 µM in experiment [8]; 0.34 µM in experiment [9]. Besides, the Kd in experiment [10] stood at 0.79 µM; in experiment [11], 8.8 µM; in experiment [12], 6.2 µM; in experiment [13] it was 3.7 µM.
